Laboratory results from patent US20040096901A1.
Several values for one entry are separate records, joined by “and”; a condition that tells them apart may be missing. Equal values may be shown once.

Target: CD45 antigen (leukocyte common antigen), human, on cells (human) (UniProt P08575)
Assay: cell-based or functional assay

B1: chimeric anti-CD45RO/RB mAb "candidate mAb" (antibody, human IgG1, kappa, V domains shown)
VH: EVQLQQSGPELVKPGASVKMSCKASGYTFTNYIIHWVKQEPGQGLEWIGYFNPYNHGTKYNEKFKGRATLTADKSSNTAYMDLSSLTSEDSAIYYCARSGPYAWFDTWGQGTTVTVSS
VL: DILLTQSPAILSVSPGERVSFSCRASQNIGTSIQWYQQRTNGSPRLLIRSSSESISGIPSRFSGSGSGTDFTLSINSVESEDIADYYCQQSNTWPFTFGSGTKLEIKR
How did the % of Inhibition of primary MLR (responder #211 CD4, stimulator #219 CD3), 10 ug/ml mAb turn out when B1 was run?
The % of Inhibition of primary MLR (responder #211 CD4, stimulator #219 CD3), 10 ug/ml mAb was 63.5%.

And the % of Inhibition of primary MLR (responder #220 CD4, stimulator #219 CD3 depl.), 10 ug/ml mAb?
The % of Inhibition of primary MLR (responder #220 CD4, stimulator #219 CD3 depl.), 10 ug/ml mAb was 63.1%.

What about the % of Inhibition of primary MLR (responder #227 CD4, stimulator #220 CD3 depl.), 10 ug/ml mAb of the same binder?
Its % of Inhibition of primary MLR (responder #227 CD4, stimulator #220 CD3 depl.), 10 ug/ml mAb is 66%.

What about the % of Inhibition of primary MLR (responder #229 CD4, stimulator #219 CD3 depl.), 10 ug/ml mAb of the same binder?
The % of Inhibition of primary MLR (responder #229 CD4, stimulator #219 CD3 depl.), 10 ug/ml mAb was 50.8%.

What about the IC50 for the inhibition of primary MLR (cellular activity IC50) of the same binder?
Its IC50 for the inhibition of primary MLR (cellular activity IC50) is 0.87 nM and 0.13 µg/ml.
